Tested on: HEK293FT cells transfected with TF library
Assay: Screening of TF condensates based on fluorescent puncta
Format: cell-based
Settings: Figure 1B numerical data; TF library screen, one value per transcriptional factor
How it was run: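 HEK293FT, PEI transfection of TF library, 60 h; ±glucose 12 h; 4% PFA fix, 0.05% Triton X-100 permeabilization, 5% BSA block; anti-Flag/anti-GAL4 overnight at 4 °C, Alexa 488 secondary 1 h; high-content imaging, 50 fields/well.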

Row | Molecule | Z score of condensed fraction
1 | SMAD7 (protein, UniProt O15105 1-426, looked up) Mothers against …: MFRTKRSALVRRLWRSRAPGGEDEEEGAGGGGGGGELRGEGATDSRAHGAGGGGPGRAGCCLGKAVRGAKGHHHPHPPAAGAGAAGGAEADLKALTHSVLKKLKERQLELLLQAVESRGGTRTACLLLPGRLDCRLGPGAPAGAQPAQPPSSYSLPLLLCKVFRWPDLRHSSEVKRLCCCESYGKINPELVCCNPHHLSRLCELESPPPPYSRYPMDFLKPTADCPDAVPSSAETGGTNYLAPGGLSDSQLLLEPGDRSHWCVVAYWEEKTRVGRLYCVQEPSLDIFYDLPQGNGFCLGQLNSDNKSQLVQKVRSKIGCGIQLTREVDGVWVYNRSSYPIFIKSATLDNPDSRTLLVHKVFPGFSIKAFDYEKAYSLQRPNDHEFMQQPWTGFTVQISFVKGWGQCYTRQFISSCPCWLEVIFNSR | -1.192
2 | SNAI2 (protein, UniProt O43623 1-268, looked up) Zinc finger protein SNAI2: MPRSFLVKKHFNASKKPNYSELDTHTVIISPYLYESYSMPVIPQPEILSSGAYSPITVWTTAAPFHAQLPNGLSPLSGYSSSLGRVSPPPPSDTSSKDHSGSESPISDEEERLQSKLSDPHAIEAEKFQCNLCNKTYSTFSGLAKHKQLHCDAQSRKSFSCKYCDKEYVSLGALKMHIRTHTLPCVCKICGKAFSRPWLLQGHIRTHTGEKPFSCPHCNRAFADRSNLRAHLQTHSDVKKYQCKNCSKTFSRMSLLHKHEESGCCVAH | -0.6818
3 | SNAPC4 (protein, UniProt Q5SXM2 1-1469, looked up) snRNA-activating protein …: MDVDAEREKITQEIKELERILDPGSSGSHVEISESSLESDSEADSLPSEDLDPADPPISEEERWGEASNDEDDPKDKTLPEDPETCLQLNMVYQEVIQEKLAEANLLLAQNREQQEELMRDLAGSKGTKVKDGKSLPPSTYMGHFMKPYFKDKVTGVGPPANEDTREKAAQGIKAFEELLVTKWKNWEKALLRKSVVSDRLQRLLQPKLLKLEYLHQKQSKVSSELERQALEKQGREAEKEIQDINQLPEEALLGNRLDSHDWEKISNINFEGSRSAEEIRKFWQNSEHPSINKQEWSREEEERLQAIAAAHGHLEWQKIAEELGTSRSAFQCLQKFQQHNKALKRKEWTEEEDRMLTQLVQEMRVGSHIPYRRIVYYMEGRDSMQLIYRWTKSLDPGLKKGYWAPEEDAKLLQAVAKYGEQDWFKIREEVPGRSDAQCRDRYLRRLHFSLKKGRWNLKEEEQLIELIEKYGVGHWAKIASELPHRSGSQCLSKWKIMMGKKQGLRRRRRRARHSVRWSSTSSSGSSSGSSGGSSSSSSSSSEEDEPEQAQAGEGDRALLSPQYMVPDMDLWVPARQSTSQPWRGGAGAWLGGPAASLSPPKGSSASQGGSKEASTTAAAPGEETSPVQVPARAHGPVPRSAQASHSADTRPAGAEKQALEGGRRLLTVPVETVLRVLRANTAARSCTQKEQLRQPPLPTSSPGVSSGDSVARSHVQWLRHRATQSGQRRWRHALHRRLLNRRLLLAVTPWVGDVVVPCTQASQRPAVVQTQADGLREQLQQARLASTPVFTLFTQLFHIDTAGCLEVVRERKALPPRLPQAGARDPPVHLLQASSSAQSTPGHLFPNVPAQEASKSASHKGSRRLASSRVERTLPQASLLASTGPRPKPKTVSELLQEKRLQEARAREATRGPVVLPSQLLVSSSVILQPPLPHTPHGRPAPGPTVLNVPLSGPGAPAAAKPGTSGSWQEAGTSAKDKRLSTMQALPLAPVFSEAEGTAPAASQAPALGPGQISVSCPESGLGQSQAPAASRKQGLPEAPPFLPAAPSPTPLPVQPLSLTHIGGPHVATSVPLPVTWVLTAQGLLPVPVPAVVSLPRPAGTPGPAGLLATLLPPLTETRAAQGPRAPALSSSWQPPANMNREPEPSCRTDTPAPPTHALSQSPAEADGSVAFVPGEAQVAREIPEPRTSSHADPPEAEPPWSGRLPAFGGVIPATEPRGTPGSPSGTQEPRGPLGLEKLPLRQPGPEKGALDLEKPPLPQPGPEKGALDLGLLSQEGEAATQQWLGGQRGVRVPLLGSRLPYQPPALCSLRALSGLLLHKKALEHKATSLVVGGEAERPAGALQASLGLVRGQLQDNPAYLLLRARFLAAFTLPALLATLAPQGVRTTLSVPSRVGSESEDEDLLSELELADRDGQPGCTTATCPIQGAPDSGKCSASSCLDTSNDPDDLDVLRTRHARHTRKRRRLV | -0.9989
4 | SMARCAD1 (protein, UniProt Q9H4L7 1-1026, looked up) SWI/SNF-related …: MNLFNLDRFRFEKRNKIEEAPEATPQPSQPGPSSPISLSAEEENAEGEVSRANTPDSDITEKTEDSSVPETPDNERKASISYFKNQRGIQYIDLSSDSEDVVSPNCSNTVQEKTFNKDTVIIVSEPSEDEESQGLPTMARRNDDISELEDLSELEDLKDAKLQTLKELFPQRSDNDLLKLIESTSTMDGAIAAALLMFGDAGGGPRKRKLSSSSEPYEEDEFNDDQSIKKTRLDHGEESNESAESSSNWEKQESIVLKLQKEFPNFDKQELREVLKEHEWMYTEALESLKVFAEDQDMQYVSQSEVPNGKEVSSRSQNYPKNATKTKLKQKFSMKAQNGFNKKRKKNVFNPKRVVEDSEYDSGSDVGSSLDEDYSSGEEVMEDGYKGKILHFLQDASIGELTLIPQCSQKKAQKITELRPFNSWEALFTKMSKTNGLSEDLIWHCKTLIQERDVVIRLMNKCEDISNKLTKQVTMLTGNGGGWNIEQPSILNQSLSLKPYQKVGLNWLALVHKHGLNGILADEMGLGKTIQAIAFLAYLYQEGNNGPHLIVVPASTIDNWLREVNLWCPTLKVLCYYGSQEERKQIRFNIHSRYEDYNVIVTTYNCAISSSDDRSLFRRLKLNYAIFDEGHMLKNMGSIRYQHLMTINANNRLLLTGTPVQNNLLELMSLLNFVMPHMFSSSTSEIRRMFSSKTKSADEQSIYEKERIAHAKQIIKPFILRRVKEEVLKQLPPKKDRIELCAMSEKQEQLYLGLFNRLKKSINNLEKNTEMCNVMMQLRKMANHPLLHRQYYTAEKLKEMSQLMLKEPTHCEANPDLIFEDMEVMTDFELHVLCKQYRHINNFQLDMDLILDSGKFRVLGCILSELKQKGDRVVLFSQFTMMLDILEVLLKHHQHRYLRLDGKTQISERIHLIDEFNTDMDIFVFLLSTKAGGLGINLTSANVVILHDIDCNPYNDKQAEDRCHRVGQTKEVLVIKLISQGTIEESMLKINQQKLKLEQDMTTVDEGDEGSMPADIATLLKTSMGL | -0.654
5 | SMYD1 (protein, UniProt Q8NB12 1-490, looked up) Histone-lysine …: MTIGRMENVEVFTAEGKGRGLKATKEFWAADIIFAERAYSAVVFDSLVNFVCHTCFKRQEKLHRCGQCKFAHYCDRTCQKDAWLNHKNECSAIKRYGKVPNENIRLAARIMWRVEREGTGLTEGCLVSVDDLQNHVEHFGEEEQKDLRVDVDTFLQYWPPQSQQFSMQYISHIFGVINCNGFTLSDQRGLQAVGVGIFPNLGLVNHDCWPNCTVIFNNGNHEAVKSMFHTQMRIELRALGKISEGEELTVSYIDFLNVSEERKRQLKKQYYFDCTCEHCQKKLKDDLFLGVKDNPKPSQEVVKEMIQFSKDTLEKIDKARSEGLYHEVVKLCRECLEKQEPVFADTNIYMLRMLSIVSEVLSYLQAFEEASFYARRMVDGYMKLYHPNNAQLGMAVMRAGLTNWHAGNIEVGHGMICKAYAILLVTHGPSHPITKDLEAMRVQTEMELRMFRQNEFMYYKMREAALNNQPMQVMAEPSNEPSPALFHKKQ | -0.4905
6 | SND1 (protein, UniProt Q7KZF4 2-910, looked up) Staphylococcal nuclease …: ASSAQSGGSSGGPAVPTVQRGIIKMVLSGCAIIVRGQPRGGPPPERQINLSNIRAGNLARRAAATQPDAKDTPDEPWAFPAREFLRKKLIGKEVCFTIENKTPQGREYGMIYLGKDTNGENIAESLVAEGLATRREGMRANNPEQNRLSECEEQAKAAKKGMWSEGNGSHTIRDLKYTIENPRHFVDSHHQKPVNAIIEHVRDGSVVRALLLPDYYLVTVMLSGIKCPTFRREADGSETPEPFAAEAKFFTESRLLQRDVQIILESCHNQNILGTILHPNGNITELLLKEGFARCVDWSIAVYTRGAEKLRAAERFAKERRLRIWRDYVAPTANLDQKDKQFVAKVMQVLNADAIVVKLNSGDYKTIHLSSIRPPRLEGENTQDKNKKLRPLYDIPYMFEAREFLRKKLIGKKVNVTVDYIRPASPATETVPAFSERTCATVTIGGINIAEALVSKGLATVIRYRQDDDQRSSHYDELLAAEARAIKNGKGLHSKKEVPIHRVADISGDTQKAKQFLPFLQRAGRSEAVVEYVFSGSRLKLYLPKETCLITFLLAGIECPRGARNLPGLVQEGEPFSEEATLFTKELVLQREVEVEVESMDKAGNFIGWLHIDGANLSVLLVEHALSKVHFTAERSSYYKSLLSAEEAAKQKKEKVWAHYEEQPVEEVMPVLEEKERSASYKPVFVTEITDDLHFYVQDVETGTQLEKLMENMRNDIASHPPVEGSYAPRRGEFCIAKFVDGEWYRARVEKVESPAKIHVFYIDYGNREVLPSTRLGTLSPAFSTRVLPAQATEYAFAFIQVPQDDDARTDAVDSVVRDIQNTQCLLNVEHLSAGCPHVTLQFADSKGDVGLGLVKEGLVMVEVRKEKQFQKVITEYLNAQESAKSARLNLWRYGDFRADDADEFGYSR | 0.9266
7 | BCL11B (protein, UniProt Q9C0K0 1-894, looked up) B-cell lymphoma/leukemia 11B: MSRRKQGNPQHLSQRELITPEADHVEAAILEEDEGLEIEEPSGLGLMVGGPDPDLLTCGQCQMNFPLGDILVFIEHKRKQCGGSLGACYDKALDKDSPPPSSRSELRKVSEPVEIGIQVTPDEDDHLLSPTKGICPKQENIAGPCRPAQLPAVAPIAASSHPHSSVITSPLRALGALPPCLPLPCCSARPVSGDGTQGEGQTEAPFGCQCQLSGKDEPSSYICTTCKQPFNSAWFLLQHAQNTHGFRIYLEPGPASSSLTPRLTIPPPLGPEAVAQSPLMNFLGDSNPFNLLRMTGPILRDHPGFGEGRLPGTPPLFSPPPRHHLDPHRLSAEEMGLVAQHPSAFDRVMRLNPMAIDSPAMDFSRRLRELAGNSSTPPPVSPGRGNPMHRLLNPFQPSPKSPFLSTPPLPPMPPGGTPPPQPPAKSKSCEFCGKTFKFQSNLIVHRRSHTGEKPYKCQLCDHACSQASKLKRHMKTHMHKAGSLAGRSDDGLSAASSPEPGTSELAGEGLKAADGDFRHHESDPSLGHEPEEEDEEEEEEEEELLLENESRPESSFSMDSELSRNRENGGGGVPGVPGAGGGAAKALADEKALVLGKVMENVGLGALPQYGELLADKQKRGAFLKRAAGGGDAGDDDDAGGCGDAGAGGAVNGRGGGFAPGTEPFPGLFPRKPAPLPSPGLNSAAKRIKVEKDLELPPAALIPSENVYSQWLVGYAASRHFMKDPFLGFTDARQSPFATSSEHSSENGSLRFSTPPGDLLDGGLSGRSGTASGGSTPHLGGPGPGRPSSKEGRRSDTCEYCGKVFKNCSNLTVHRRSHTGERPYKCELCNYACAQSSKLTRHMKTHGQIGKEVYRCDICQMPFSVYSTLEKHMKKWHGEHLLTNDVKIEQAERS | -0.7987
